{"source": "patent US20070010430A1", "key": {"MMP-2": {"biological_target": "MMP-2", "test": "cell-based or functional assay"}, "MMP-9": {"biological_target": "MMP-9", "test": "cell-based or functional assay"}}}
{"substance": "shark cartilage extract obtained in Section (1) of Example 1 (water extract of blue shark cartilage, ethanol precipitate)", "values": [{"measurement": "decomposition-inhibition rate (type V collagen degradation, SDS-PAGE/western blot densitometry)", "setting": "MMP-2", "result": 90, "unit": "%"}, {"measurement": "decomposition-inhibition rate (type V collagen degradation, SDS-PAGE/western blot densitometry)", "setting": "MMP-9", "result": 90, "unit": "%"}]}
